# Patent US9539306B2, “Anti-tumor drug, medicament, composition, and use thereof” (GENE SIGNAL INTERNATIONAL SA, priority 2007, dated 2017)
# How the values were obtained:
# [1] = tested on: CALU-6 cells (human lung carcinoma); assay: Human non-small cell lung cancer (CALU-6) xenograft model, tumor growth; type: in vivo, Swiss Nude mice; set-up: Growth inhibition based on T/C ratio, T/C ratio (%): concentration or dose not given beside the values; details: for MTV (mean tumor volume): IP Q2DX8, 168A-T2 15 mg/kg, CDDP 5 mg/kg; for MRTV (mean relative tumor volume): ratio of MTV at time t to volume at D12; for Growth inhibition based on T/C ratio, T/C ratio (%): versus vehicle group 1
# Procedure: CALU-6 cells were cultured as adherent cells in complete EMEM medium (Ref. CM1MEM18-01, batch No. 462502, Eurobio, France) 10% fetal calf serum (FCS; Ref. CVFSVF00-01, batch No. S13021, Eurobio, France) under a 37° C., 5% CO2 humidified atmosphere. They were amplified in 75 cm^2-flasks to reach 90×10^6 cells.
# At D0, CALU-6 cells (human lung carcinoma) were collected from 75 cm^2-flasks by removing the medium and adding 3 ml of trypsine-EDTA (Ref. CEZTDA00-0U, batch No. 633920, Eurobio, France). After 5 min of incubation at 37° C., cells had detached from the plastic and the enzymatic reaction was stopped by adding 3 ml of EMEM medium containing 10% fetal calf serum. Cells were then centrifuged at 700 g for 5 min at room temperature. They were resuspended in serum-free EMEM culture medium. Cells were counted and viability assessment by Trypan Blue exclusion (Ref. CSTCOL03-0U, batch No. 434511, Eurobio, France). The number of viable CALU-6 cells was >99%. The number of cells was then adjusted to 25×10^6 cells/ml in serum-free medium.
# Thirty healthy female Swiss Nude mice were anesthetized by IP injection of Ketamine-Xylazine (80 mg/kg-12 mg/kg; Ref. K-113, Sigma, France). CALU-6 cells 5×10^6 cells/mouse in 200 μl of serum-free medium) were then implanted subcutaneously in the right flank of each mouse.
# At D12 post-implantation of the CALU-6 cells, the thirty mice were randomized into […]. Tumor volumes had reached 54 to 296 mm^3 and mean tumor volumes were not statistically different between groups after randomization.
# Injections in groups 1, 2, 3 and 4 were performed according to the schedules Q2DX8, i.e. 1 quantity every two days, eight times.
# Ketamine/Xylazine (80 mg/kg-12 mg/kg; Ref. K-113, Sigma, France) was used to anaesthetize the animals before sacrifice by cervical dislocation. For all animals, the tumor size was measured twice a week with calipers. The tumor volume (mm^3) was measured according to the formula: (length×width^2)/2.
# • Tumor growth curves were drawn using the mean tumor volumes (MTV), • Mean Relative tumor volume (MRTV) was calculated as the ratio between the MTV at time t and the volume at the time of injection (t=D12), • Tumor growth inhibition (T/C, %) was evaluated as the ratio of the median tumor volumes of treated groups versus vehicle group.
# Statistical analyses of tumor volumes (TV), time to reach ‘TV’, tumor-doubling time (DT), relative tumor volume (RTV) and tumor growth inhibition (T/C) were performed for all groups. Data are expressed as mean±SD. Groups of data were normally distributed. Univariate analysis were performed to assess differences between groups. Statistical significance was then determined using the Student's t test. A P<0.05 was considered as statistically significant. The Statistical analysis was performed using XLSTAT (Addinsoft, France).
# HUVEC cells = assay: Inhibition of endothelial cell proliferation in vitro (MTT); type: cell-based, human; details: comparison with literature (Binetruy-Tournaire et al.)
# Procedure: HUVEC cells were cultured to confluency in complete EGM2-MV medium (Cambrex) at 37° C. and in 5% CO2 humidified atmosphere. Cells were then collected by trypsine-EDTA digestion (Versene, Eurobio). After 5 min, the enzymatic reaction was stopped by adding 3 ml of the culture medium containing 5% FCS. Cells were then centrifuged at 220 g for 10 min at room temperature, washed twice with 5 ml of culture medium, suspended in complete culture medium, counted and adjusted to 50 000 cells/ml. One hundred μL per well were then distributed to a 96-well cell culture grade micro-plate (5 000 cells/well) and incubated with different concentrations of the purified protein 168A-T2 in Tris-HCl 20 mM buffer (pH 8), containing 150 mM NaCl and urea 2M; this buffer was used as control.
# After 42 hrs at 37° C., cell proliferation was measured using thiazolyl blue tetrazolium bromide (MTT) method. Briefly, MTT (Sigma) was dissolved in PBS at 5 mg/ml, the solution was filtered (0.22 μm) and 10 μl were added to each well of the 96-well micro-plates. […] The optical density (OD) at 570 nm was then measured using μQuant micro-plate reader (Bio-Tek Instrument gmbh, Colmar, France) coupled to the KC4 (Bio-Tek) software. […]
# HUVEC [2] = assay: In vitro angiogenesis of HUVEC induced by FGF2 and VEGF on Matrigel; type: cell-based, human; details: 3.5, 6.9, 13.6 μg/mL (0.2, 0.4, 0.8 μM)
# Procedure: The purified proteins 168A-T2 was tested in vitro on angiogenesis of HUVEC induced by FGF2 and VEGF on Matrigel.
# 24 wells plates were prepared with 250 μL of BD Matrigel™/well and then incubated 30 minutes in incubator. HUVEC cells were then prepared as described in example 2 and 70 000 cells (in 0.5 mL) were seeded per well and incubated with different concentrations of the purified protein 168A-T2, in Tris-HCl 20 mM buffer (pH 8), containing 150 mM NaCl and urea 2M; this buffer was used as control: • FIG. 2a: Control (Buffer Urea 2M) • FIG. 2b: 168A-T2 3.5 μg/mL (0.2 μM) • FIG. 2c: 168A-T2 6.9 μg/mL (0.4 μM) • FIG. 2d: 168A-T2 13.6 μg/mL (0.8 μM)
# HUVEC [3] = assay: Migration of human endothelial cells (wound assay); type: cell-based; details: 12, 17, 23 μg/mL (0.7, 1, 1.35 μM); 18 hours
# Procedure: Cell migration was tested by the wound assay described by Sato and Rifkin (J Cell Biol. 1988; 107:1199) with few modifications. HUVEC grown in growth medium EGM-2MV (Cambrex) were seeded in 24-well plates at 80 000 cells per well in 500 μL of growth medium and grown to confluence at 37° C. in a humidified atmosphere containing 5% CO2. Cells were scrapped with a plastic tip on one line only. After wounding, the culture medium was changed for fresh medium (control, FIG. 3a) or fresh medium supplemented with: • FIG. 3b: 168A-T2 12 μg/mL (0.7 μM) • FIG. 3c: 168A-T2 17 μg/mL (1 μM) • FIG. 3d: […] 23 μg/mL (1.35 μM)
# After 18 hours of culture, cells were observed and photographed under the inverted microscope (Analysis, Olympus, Rungis, France).
# [4] = tested on: kidney cancer line (BizX); assay: Inhibition of kidney cancer cell line proliferation in vitro (MTT); type: cell-based; details: 48 hours, maximum over tested concentrations
# Procedure: (§1) BizX cell preparation of 50000 cells/mL was prepared in complete medium. In a 96 wells plate, […] of the cell preparation was distributed in each well and then incubated with different concentrations of 168A-T2 (each concentration was tested in triplicate). After 48 hours of incubation at 37° C., […] of MTT ([…] in water) were added in each well. After 3 hours of incubation at 37° C., the culture medium was eliminated and […] of DMSO were added to solubilize MMT crystals. The optical density (OD) at 570 nm was then measured using μQuant micro-plate reader (Bio-Tek Instrument gmbh, Colmar, France) coupled to the KC4 (Bio-Tek) software. The OD was corrected by subtracting blank-well OD values (the OD values obtained from wells without cells), and the inhibition of cell proliferation was measured relative to control (OD obtained from wells with untreated kidney tumor cells representing the maximal proliferative response, i.e. 100%).
# lung cancer line (Calu6) = assay: Inhibition of lung cancer cell line proliferation in vitro (MTT); type: cell-based, human; details: 48 hours, maximum over tested concentrations
# Procedure: as §1
# Calu6 cells were cultured and treated as described in example 5.
molecule,measurement,setting,value
"N.N.[Cl][Pt][Cl] [Cisplatin, cis-diamineplatinum(II) dichloride, reference compound]",MTV (mean tumor volume),[1]; D12 (start of treatment),142.60 mm^3
same,MTV (mean tumor volume),[1]; D14,351.15 mm^3
same,MTV (mean tumor volume),[1]; D16,291.29 mm^3
same,MTV (mean tumor volume),[1]; D18,329.18 mm^3
same,MTV (mean tumor volume),[1]; D20,386.84 mm^3
same,MTV (mean tumor volume),[1]; D22,470.59 mm^3
same,MTV (mean tumor volume),[1]; D24,595.00 mm^3
same,MTV (mean tumor volume),[1]; D26,527.98 mm^3
same,MTV (mean tumor volume),[1]; D28,742.44 mm^3
"168A-T2: fragment of the extracellular domain of protein 168A, SEQ ID NO:4 (108 amino acids), recombinant from E. coli, 18 kD (protein, listed as Homo sapiens) MAFDVSWFAVHSFGLDKAPVLLSSLDRKGIVTTSRRDWKSDLSLERVSVLEFLLQVHGSEDQDFGNYYCSVTPWVKSPTGSWQKEAEIHSKPVFITVKMDVLNAFKYP",potency relative to anti-VEGF mAb and/or VEGF receptor (KDR)-based identified peptides,HUVEC cells,at least 600 fold
same,inhibition of in vitro angiogenesis (capillary tube formation),HUVEC [2],inhibited in vitro angiogenesis in a dose-dependent manner
same,inhibition of human endothelial cell migration,HUVEC [3],inhibited human endothelial cells migration in a dose dependent manner
same,inhibition of proliferation of kidney cancer line (BizX),[4],up to 20%
same,inhibition of proliferation of lung cancer line (Calu6),lung cancer line (Calu6),up to 40%
same,MRTV (mean relative tumor volume),[1]; D12 (reference time),1
same,MTV (mean tumor volume),[1]; D12 (start of treatment),159.22 mm^3
same,MTV (mean tumor volume),[1]; D14,181.94 mm^3
same,MRTV (mean relative tumor volume),[1]; D14,1.15
same,"Growth inhibition based on T/C ratio, T/C ratio (%)",[1]; D14,37%
same,MTV (mean tumor volume),[1]; D16,264.20 mm^3
same,MRTV (mean relative tumor volume),[1]; D16,1.93
same,"Growth inhibition based on T/C ratio, T/C ratio (%)",[1]; D16,39%
same,MTV (mean tumor volume),[1]; D18,322.99 mm^3
same,MRTV (mean relative tumor volume),[1]; D18,2.08
same,"Growth inhibition based on T/C ratio, T/C ratio (%)",[1]; D18,17%
same,MTV (mean tumor volume),[1]; D20,391.90 mm^3
same,MRTV (mean relative tumor volume),[1]; D20,2.60
same,"Growth inhibition based on T/C ratio, T/C ratio (%)",[1]; D20,29%
same,MTV (mean tumor volume),[1]; D22,485.42 mm^3
same,MRTV (mean relative tumor volume),[1]; D22,3.47
same,"Growth inhibition based on T/C ratio, T/C ratio (%)",[1]; D22,16%
same,MTV (mean tumor volume),[1]; D24,642.24 mm^3
same,MRTV (mean relative tumor volume),[1]; D24,4.83
same,"Growth inhibition based on T/C ratio, T/C ratio (%)",[1]; D24,15%
same,MTV (mean tumor volume),[1]; D26,529.95 mm^3
same,MRTV (mean relative tumor volume),[1]; D26,4.14
same,"Growth inhibition based on T/C ratio, T/C ratio (%)",[1]; D26,45%
same,MTV (mean tumor volume),[1]; D28,615.96 mm^3
same,MRTV (mean relative tumor volume),[1]; D28,4.51
same,"Growth inhibition based on T/C ratio, T/C ratio (%)",[1]; D28,45%
